This assay deals with transducin-like enhancer of split 1 (TLE1) (human (endogenous in synovial sarcoma and control cell lines and tumor tissue)) (UniProt Q04724). As to the kind of experiment: proximity ligation; Duolink In Situ Red kit on cultured cells fixed with 3% formaldehyde and permeabilized with 0.1% Triton X-100; rabbit anti-SS18 and mouse anti-TLE1 primary antibodies overnight at 4°C; nuclear foci per nucleus; also done after HDAC inhibitors, SXT1596 and siRNA/shRNA against SS18-SSX.

These results are taken from PMC5085163.

UniProt Q04724, sequence (Q04724 whole entry): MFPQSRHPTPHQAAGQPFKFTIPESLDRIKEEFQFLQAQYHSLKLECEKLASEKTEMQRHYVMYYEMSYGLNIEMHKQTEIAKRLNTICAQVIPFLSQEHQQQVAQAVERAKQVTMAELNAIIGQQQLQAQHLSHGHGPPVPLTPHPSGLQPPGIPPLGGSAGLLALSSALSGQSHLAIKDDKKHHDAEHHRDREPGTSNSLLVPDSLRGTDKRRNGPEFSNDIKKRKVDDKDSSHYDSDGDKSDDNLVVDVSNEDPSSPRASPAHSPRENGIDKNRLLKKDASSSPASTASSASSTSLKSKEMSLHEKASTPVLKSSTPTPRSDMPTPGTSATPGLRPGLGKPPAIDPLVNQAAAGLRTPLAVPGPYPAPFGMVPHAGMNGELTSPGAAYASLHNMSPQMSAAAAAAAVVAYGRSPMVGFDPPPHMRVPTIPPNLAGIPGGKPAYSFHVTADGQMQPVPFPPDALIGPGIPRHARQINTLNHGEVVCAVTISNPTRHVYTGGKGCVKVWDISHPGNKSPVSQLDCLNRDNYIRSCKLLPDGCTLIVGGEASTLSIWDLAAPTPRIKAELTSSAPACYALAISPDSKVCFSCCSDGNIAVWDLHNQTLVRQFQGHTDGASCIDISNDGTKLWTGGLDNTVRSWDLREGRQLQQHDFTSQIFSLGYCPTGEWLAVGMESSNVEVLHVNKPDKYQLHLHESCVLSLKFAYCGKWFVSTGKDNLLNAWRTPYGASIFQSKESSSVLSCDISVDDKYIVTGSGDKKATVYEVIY

Take “SS18-SSX2 fusion oncoprotein (natural protein)”: the fold PLA signal over control cell lines was above 10 fold.

With “SS18-SSX1 fusion oncoprotein (natural protein)”, the fold PLA signal over control cell lines was above 10 fold.
